Patent US5221606A, “Reagent and kit for enzyme assay comprising a substrate consonant with given enzyme to be assayed” (King's College London, priority 1987, dated 1993)

Substrate: CCC(=O)Oc1c(OC)cc(C=C2SC(=S)N(CC(=O)O)C2=O)cc1OC
Test: assay of arylesterase in serum
Assay type: biochemical
Details: other: borate buffer pH 8, 37.0 °C
Procedure: The serum samples were diluted by a factor of 10 prior to the assay. The substrate solution and the diluted sera were then preincubated at 37° C. in a water bath. Aliquots (0.75 ml) of the substrate solution were then pipetted into small plastic tubes (2 ml capacity), and 0.05 ml samples of the sera were added to each of the substrate aliquots and shaken vigorously to ensure adequate mixing. A blank was run by substituting water (0.05 ml) for the serum. The reaction was stopped after 10 min by the addition of the stopping buffer (0.25 ml) [prepared by dissolving DABCO (22.4 g) in water (200 ml) and adjusting the pH to 10 by the addition of a little conc. hydrochloric acid. The resulting mixture was then made up to 1000 ml with acetone]. The absorption (A) was then measured at 529 nm and the enzyme activity calculated on the basis of an εmax =47,500. [formula] where t=time of incubation in hours

B1: arylesterase (Homo sapiens) (protein)
chain: MAKLIALTLLGMGLALFRNHQSSYQTRLNALREVQPVELPNCNLVKGIETGSEDLEILPNGLAFISSGLKYPGIKSFNPNSPGKILLMDLNEEDPTVLELGITGSKFDVSSFNPHGISTFTDEDNAMYLLVVNHPDAKSTVELFKFQEEEKSLLHLKTIRHKLLPNLNDIVAVGPEHFYGTNDHYFLDPYLQSWEMYLGLAWSYVVYYSPSEVRVVAEGFDFANGINISPDGKYVYIAELLAHKIHVYEKHANWTLTPLKSLDFNTLVDNISVDPETGDLWVGCHPNGMKIFFYDSENPPASEVLRIQNILTEEPKVTQVYAENGTVLQGSTVASVYKGKLLIGTVFHKALYCEL
notes: The serum samples were diluted by a factor of 10 prior to the assay; from tissue; host or cells: serum
Q: How did the Km turn out when B1 was run?
A: 25 µM
